The results in this text go back to patent US20180282402A1 (ATYR PHARMA, published 2018).

Substitutions are numbered along the chain they refer to. Bounds are passed on as bounds.

Sequences and labels used below:
T1: Fc-HRS(2-60) (human, UniProt P12081 2-60)
T1 construct: Fc at the N-terminus, HRS residues 2-60 (WHEP domain) at the C-terminus; in the imaging assay pre-complexed with anti-Fc-PE; also called HRS-Fc fusion protein construct; ATYR1923; not shown: human IgG Fc region
T1 sequence: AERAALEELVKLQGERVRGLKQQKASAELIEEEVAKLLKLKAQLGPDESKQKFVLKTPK

T2: Human HARS (human, UniProt P12081 1-509, limits assumed)
T2 construct: also called human HRS; human histidyl-tRNA synthetase
T2 sequence: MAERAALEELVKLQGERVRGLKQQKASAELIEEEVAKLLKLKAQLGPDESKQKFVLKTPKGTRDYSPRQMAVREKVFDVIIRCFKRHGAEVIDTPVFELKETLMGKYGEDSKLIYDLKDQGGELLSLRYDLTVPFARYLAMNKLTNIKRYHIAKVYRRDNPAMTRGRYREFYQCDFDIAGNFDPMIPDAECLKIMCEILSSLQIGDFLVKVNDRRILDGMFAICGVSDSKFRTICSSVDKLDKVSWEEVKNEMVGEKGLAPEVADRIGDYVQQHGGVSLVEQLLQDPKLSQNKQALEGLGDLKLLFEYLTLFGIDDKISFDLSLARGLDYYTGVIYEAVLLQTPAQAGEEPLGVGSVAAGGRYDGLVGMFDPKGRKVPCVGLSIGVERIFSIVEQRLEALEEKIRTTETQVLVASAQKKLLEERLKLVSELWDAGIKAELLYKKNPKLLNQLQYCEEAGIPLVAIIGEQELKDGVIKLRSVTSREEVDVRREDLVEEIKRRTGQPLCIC

T3: Mouse HARS (mouse, UniProt Q61035 1-509, limits assumed)
T3 construct: also called mouse HRS
T3 sequence: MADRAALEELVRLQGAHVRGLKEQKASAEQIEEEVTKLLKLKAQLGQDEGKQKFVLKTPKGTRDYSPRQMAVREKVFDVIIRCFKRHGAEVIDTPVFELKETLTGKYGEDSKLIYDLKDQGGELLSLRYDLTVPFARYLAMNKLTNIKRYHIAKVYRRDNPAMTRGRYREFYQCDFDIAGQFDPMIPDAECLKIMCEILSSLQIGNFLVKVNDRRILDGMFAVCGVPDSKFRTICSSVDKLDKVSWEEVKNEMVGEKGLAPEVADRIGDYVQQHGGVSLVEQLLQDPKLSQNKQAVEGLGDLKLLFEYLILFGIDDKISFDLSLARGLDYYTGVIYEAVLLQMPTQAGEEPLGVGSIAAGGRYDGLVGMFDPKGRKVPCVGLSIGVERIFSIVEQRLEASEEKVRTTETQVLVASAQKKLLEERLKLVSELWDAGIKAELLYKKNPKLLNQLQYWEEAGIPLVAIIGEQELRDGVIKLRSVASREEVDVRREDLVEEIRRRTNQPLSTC

B1: KL31-467 (antibody, V domains shown)
VH: QVQLVQSGAEVKKPGASVKVSCKASGYTFTDYCIGWIRQAPGQGLEWMGDICPGDTYTNDNEKFKDRATMTADTSTSTAYMELSSLRSEDTAVYYCARGEEQLGLRNAMDYWGQGTLVTVSS
VL: DIVMTQSPDSLAVSLGERATINCQSQSVSTSTYNYMHWYQQKPGQPPKLLIKYASNLESGVPDRFSGSGSGTDFTLTISSLQAEDVATYYCQHSWEIPWTFGGGTKVEIK
notes: Humanized; IgG1m(zf) kappa
B2: KL31-356 (antibody, IgG4, V domains shown)
VH: B1 VH
VL: B1 VL
notes: Humanized; IgG4-2 kappa
B3: VEGF-A121 (ligand, human, UniProt P15692-9 27-147, looked up)
chain: APMAEGGGQNHHEVVKFMDVYQRSYCHPIETLVDIFQEYPDEIEYIFKPSCVPLMRCGGCCNDEGLECVPTEESNITMQIMRIKPHQGQHIGEMSFLQHNKCECRPKKDRARQEKCDKPRR
B4: VEGF-A145 (ligand, human, UniProt P15692-6 27-171, looked up)
chain: APMAEGGGQNHHEVVKFMDVYQRSYCHPIETLVDIFQEYPDEIEYIFKPSCVPLMRCGGCCNDEGLECVPTEESNITMQIMRIKPHQGQHIGEMSFLQHNKCECRPKKDRARQEKKSVRGKGKGQKRKRKKSRYKSWSVCDKPRR
B5: KL31-513 (antibody, IgG4, V domains shown)
VH: B1 VH
VL: EIVLTQSPATLSLSPGERATLSCQSQSVSTSTYNYMHWYQQKPGQAPRLLIKYASNLESGIPDRFSGSGSGTDFTLTISRLEPEDFATYYCGHSYEIPWTFGGGTKVEIK
notes: Humanized; IgG4-2 kappa
B6: KL31-240 (antibody, IgG4, V domains shown)
VH: B1 VH
VL: B5 VL
notes: Humanized; IgG4 kappa
B7: KL31-478 (antibody, V domains shown)
VH: B1 VH
VL: B5 VL
notes: Humanized; IgG1m(zf) kappa
B8: KL31-532 (antibody, V domains shown)
VH: B1 VH
VL: B1 VL with Q92G, W95Y
notes: Humanized; IgG1m(zf) kappa
B9: KL31-241 (antibody, V domains shown)
VH: B1 VH with T56A, L117S
VL: B1 VL with V107L
notes: Humanized; IgG1m(zf) kappa
B10: AB04-425 (antibody, V domains shown)
VH: QVQLVESGGGLVKPGGSLRLSCAASGFTFSDYYMTWIRQAPGKGLEWVSYISGSFRYTNYADKVKGRFTISRDNAKNSLYLQMNSLRDEDTAVYFCARYVYQVVAIGDLWGQGTLVTVSS
VL: DIQMTQSPSSVSASVGDRVTITCRASQGISSWLAWYQQKPGRAPKLLIFAASSLQSGVPSRFSGSGSGTHFTLTISSLQPEDFATYYCQQAESFPYTFGQGTKLEIK
notes: Human; IgG1m(zf) kappa
B11: AB13-259 (IgG4-2 kappa) (antibody, V domains shown)
VH: QVQLVESGGGLVKPGGSLRLSCAASGFTFSDYYMSWIRQAPGKGLEWVSYISDKSRYTKYTDSVRGRFTISRDNAKNSLYLQMNSLRAEDTAVYYCARYLYQVIAIADAWGQGTLVTVSS
VL: B10 VL with Y36F, R42K, A50V, S53N, Q55E, H70D
notes: Human
B12: AB13-112 (IgG4 kappa) (antibody, V domains shown)
VH: B11 VH with S63K
VL: B10 VL with Y36F, R42K, A50V, S53N, Q55E, H70D
notes: Human
B13: AB13-288 (IgG4-2 kappa) (antibody, V domains shown)
VH: B11 VH with S63K
VL: B10 VL with Y36F, R42K, A50V, S53N, Q55E, H70D
notes: Human
B14: AB04-168 (antibody, IgG4, V domains shown)
VH: B10 VH
VL: B10 VL
notes: Human; IgG4-2 kappa
B15: AB13-288 (IgG1m(zf) kappa) (antibody, V domains shown)
VH: B11 VH with S63K
VL: B10 VL with Y36F, R42K, A50V, S53N, Q55E, H70D
notes: Human
B16: AB13-433 (antibody, V domains shown)
VH: B11 VH with K54S, R56T, K59N, I106V, A109S
VL: B10 VL with Y36F, R42K, F49Y, A50V, S53N, Q55E, H70D, E92N
notes: Human; IgG1m(zf) kappa
B17: AB04-439 (antibody, V domains shown)
VH: B10 VH with K63S
VL: B10 VL
notes: Human; IgG1m(zf) kappa
B18: AB13-112 (IgG1m(za) kappa) (antibody, V domains shown)
VH: B11 VH with S63K
VL: B10 VL with Y36F, R42K, A50V, S53N, Q55E, H70D
notes: Human

The target in one assay is T1, Fc-HRS(2-60). Description: flow cytometry blocking assay: 43.75 nM biotinylated Fc-HRS(2-60) complexed with 87.5 nM streptavidin-PE, added with titrated antibody to Expi293 cells stably expressing NRP2, the blocked partner [panel A]. (In general: Flow cytometry measures light scatter and fluorescence of single cells or particles in a stream.)
Consider B1, for which the “IC50 (read off the curve)” value is around 20 nM.
Turning to B2, the “IC50 (read off the curve)” value is around 20 nM.

The target of another assay is T4, NRP2-Fc (R&D Systems #2215-N2) (human, UniProt O60462 23-864, limits assumed).
T4 construct: Bought reagent used as NRP2 in the SPR experiments; also called human NRP2; Neuropilin 2; not shown: Fc
T4 sequence (O60462 23-864 limits assumed): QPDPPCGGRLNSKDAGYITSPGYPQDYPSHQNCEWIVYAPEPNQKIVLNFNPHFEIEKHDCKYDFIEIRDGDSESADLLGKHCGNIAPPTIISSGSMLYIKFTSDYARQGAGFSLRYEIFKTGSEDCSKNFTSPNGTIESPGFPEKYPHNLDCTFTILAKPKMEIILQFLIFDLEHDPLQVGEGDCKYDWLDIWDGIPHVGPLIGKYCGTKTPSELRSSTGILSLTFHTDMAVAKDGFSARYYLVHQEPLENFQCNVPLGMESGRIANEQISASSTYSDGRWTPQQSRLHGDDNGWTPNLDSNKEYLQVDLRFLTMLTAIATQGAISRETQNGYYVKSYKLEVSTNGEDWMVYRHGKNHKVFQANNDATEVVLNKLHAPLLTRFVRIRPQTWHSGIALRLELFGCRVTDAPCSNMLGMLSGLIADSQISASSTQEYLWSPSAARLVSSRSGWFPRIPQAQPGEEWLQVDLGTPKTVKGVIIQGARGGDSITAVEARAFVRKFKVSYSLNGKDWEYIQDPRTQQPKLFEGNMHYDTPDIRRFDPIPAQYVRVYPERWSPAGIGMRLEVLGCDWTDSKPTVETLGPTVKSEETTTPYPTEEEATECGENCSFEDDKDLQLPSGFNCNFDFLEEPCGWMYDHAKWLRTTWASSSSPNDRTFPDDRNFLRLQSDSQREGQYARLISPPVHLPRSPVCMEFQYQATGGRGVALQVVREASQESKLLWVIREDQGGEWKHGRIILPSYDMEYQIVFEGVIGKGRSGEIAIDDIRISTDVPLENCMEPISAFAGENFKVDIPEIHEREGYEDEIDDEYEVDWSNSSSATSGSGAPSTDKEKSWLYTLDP
Description: SPR; column Binding to NRP2 observed by SPR. On the technique in general: SPR reads the build-up and loss of mass on a sensor chip optically.
For B3, the binding result was “no binding”.
Still for that read-out and setting: as for B4, the entry is “no binding”.

The target of a further assay is T2, Human HARS. Description: SPR (ProteOn); HRS protein immobilized, antibody as analyte.
For orientation: Kd means the constant that tells how readily two partners part at equilibrium. Molecule B1 had a Kd of 0.21 nM. This lies in the sub-nanomolar range.
Turning to B5, the Kd was 0.116 nM. Against the preceding molecule, the Kd is about 1.8-fold lower.
B6 displayed a Kd of 0.104 nM. The Kd values of the last two molecules are within 1.5-fold of each other.
The same measure, in the same setting: as for B7, the figure is 0.076 nM.
Turning to B2, the Kd worked out at 0.3 nM.
B8 had a Kd of 0.064 nM.
B9 had a Kd of 1.4 nM.
The same measure, in the same setting: next, B10: 0.01 nM; B11: 0.029 nM; B12: below 0.001 nM.
On the same count and under the same terms, next, B13: below 0.001 nM; B14: 0.015 nM; B15: below 0.001 nM.
On the same count and under the same terms, as for B16, the figure is 0.21 nM; as for B17, 0.048 nM.
B18 displayed a Kd below 0.001 nM.

For another assay, the target named is T3, Mouse HARS. The assay is described as above.
Molecule B1 showed a Kd of 0.96 nM.
For the molecule B5, binding was characterised by a dissociation constant (Kd) of 1.25 nM.
The same measure, in the same setting: next, B6: 0.942 nM; B7: 0.614 nM.
On the same count and under the same terms, as for B2, the figure is 1.4 nM; as for B8, 0.37 nM.
Still for that read-out and setting: as for B9, the figure is 5.1 nM; as for B10, 0.127 nM; as for B12, 0.0025 nM.
Regarding B13, the Kd was 0.023 nM.
B14 had a Kd of 0.145 nM.
As to B15, the Kd is below 0.001 nM.
Same read-out and setting: next, B16: 0.21 nM; B17: 0.13 nM; B18: below 0.001 nM.

Another assay concerns the target T1, Fc-HRS(2-60). Description: flow cytometry blocking assay: 43.75 nM biotinylated Fc-HRS(2-60) complexed with 87.5 nM streptavidin-PE, added with titrated antibody to Expi293 cells stably expressing NRP2, the blocked partner [panel B].
For the molecule B7, the “IC50 (read off the curve)” value was around 10 nM.
